Assay results from article PMC3970802.

Biological target: TLND2AXH, ataxin-1 residues 410-561, recombinant protein for size exclusion chromatography
Test: SEC; analytical, Superdex-75 10/300 GL, 20 mM Tris-HCl pH 7, 150 mM NaCl, 1 mM TCEP; 200 ul of 150 uM protein incubated 24 h at 37 °C, each injected separately; 0.8 ml/min; dimer to monomers

Substance: TLND2AXH, ataxin-1 residues 410-561, recombinant protein for size exclusion chromatography (domain or fragment)
- stoichiometry N: 2
